Measured values from patent US20260167714A1 (COHERUS BIOSCIENCES, published 2026).

Assays:
[1] = biological target: T1, human ILT4 expressed on cells (human, UniProt Q8N423 22-597); assay: flow cytometry blocking assay: ILT4-expressing CHO cells preincubated with antibody, then PE-HLA-G; HLA-G binding MFI falls from about 105000 (no antibody) to near 0
T1 construct: whole, on cells; also called CHO-S/ILT4 cells; ILT4-CHO cells
Description: (§1) In the second blocking experiment, the primary antibody dilutions were made by diluting antibody to 15 μg/ml in FACS buffer. Three independent sets of eleven 2.5-fold serial dilutions were then made in FACS buffer from 15 μg/ml to 0.002 μg/ml. Each dilution set was handled independently, and 50 μl from each was added to cells in duplicate. Control wells received FACS buffer with no antibody. Wells were mixed and incubated for 30 minutes at 4 degrees C. Cells were washed twice in FACS buffer.
(§2) In both blocking experiments, phycoerythrin (PE)-conjugated HLA-G tetramer was diluted in FACS buffer to 5 μg/ml and 100 μl per well was added to cells. Cells were incubated at 4 degrees C. for 30 minutes, washed twice in FACS buffer, and resuspended in 250 μl FACS buffer with 0.1 μg/ml propidium iodide.
(§3) Cells were acquired on an Attune flow cytometer, with 5000 propidium iodide-negative cells collected per sample, and MFI was recorded. Relative blocking activity was calculated with the following formula: 100−(Sample MFI−Background MFI)/(Top MFI−Background MFI)*100. Prism software (Graphpad) was used to plot MFI and relative blocking activity for each sample. The blocking potency for each antibody, represented as IC₅₀, was calculated with Prism software.

[2] = biological target: T2, recombinant human ILT4 (LILRB2) (human, UniProt Q8N423 22-460); assay: SPR, Biacore T200, mAb captured on anti-Fc, ILT4 injected, medium resolution, 25 C
T2 construct: Bought protein (Acro Biosystems or R&D Systems); also called ILTR4
Description: (§4) Label-free SPR analysis on a Biacore T200 instrument was utilized to measure antibody affinity to ILT4. CM4 sensor chips from Cytiva Inc. were utilized for all medium resolution analyses. Either anti-mouse Fc specific or anti-human Fc specific capture surfaces were prepared using standard amine coupling chemistry. Mouse, Chimera or Humanized mAbs were captured to their respective surfaces and ILT4 was injected across the surfaces from 101 nM to 0.79 nM in a 2-fold serial dilution series at a flow rate of 100 μL/min. The association phase was followed for 90 sec. while the dissociation phase was followed for 1200 sec. due to the medium resolution analysis implemented here. The sensorgrams were double-referenced and fit globally to a 1:1 interaction model with a term included for mass transport, and the equilibrium dissociation constant was calculated as KD=koff/kₒₙ. […] All kinetic experiments were performed at 25° C. in a buffer consisting of Hepes-buffered saline, pH 7.4, with 0.05% polysorbate 20 (HBS-P+) and 100 μg/ml Bovine Serum Albumin (BSA).

[3] = biological target: T1, human ILT4 expressed on cells; assay: flow cytometry, blockade of PE-HLA-G tetramer (5 µg/ml) binding to CHO-S/ILT4 cells, experiment 2
Description: as §1, §2, §3

[4] = biological target: T1, human ILT4 expressed on cells; assay: cell-based or functional assay
[5] = biological target: T2, recombinant human ILT4 (LILRB2); assay: SPR, Biacore T200, medium resolution; koff held at its limit of 4.27e-5 s^-1
Description: as §4

T2 sequence (Q8N423 other isoform, or with tags, fused parts or gaps limits assumed): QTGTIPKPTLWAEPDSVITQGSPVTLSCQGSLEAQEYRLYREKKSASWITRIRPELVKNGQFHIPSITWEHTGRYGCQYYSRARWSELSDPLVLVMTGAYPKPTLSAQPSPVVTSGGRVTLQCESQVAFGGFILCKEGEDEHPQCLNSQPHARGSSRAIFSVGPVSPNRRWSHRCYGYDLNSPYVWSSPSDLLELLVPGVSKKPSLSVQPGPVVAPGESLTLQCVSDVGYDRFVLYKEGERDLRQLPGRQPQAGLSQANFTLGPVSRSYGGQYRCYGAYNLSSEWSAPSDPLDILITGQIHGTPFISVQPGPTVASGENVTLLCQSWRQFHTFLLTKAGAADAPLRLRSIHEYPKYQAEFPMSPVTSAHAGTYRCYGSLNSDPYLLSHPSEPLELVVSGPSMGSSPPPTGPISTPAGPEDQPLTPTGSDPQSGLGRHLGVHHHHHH
T1 sequence (Q8N423 22-597): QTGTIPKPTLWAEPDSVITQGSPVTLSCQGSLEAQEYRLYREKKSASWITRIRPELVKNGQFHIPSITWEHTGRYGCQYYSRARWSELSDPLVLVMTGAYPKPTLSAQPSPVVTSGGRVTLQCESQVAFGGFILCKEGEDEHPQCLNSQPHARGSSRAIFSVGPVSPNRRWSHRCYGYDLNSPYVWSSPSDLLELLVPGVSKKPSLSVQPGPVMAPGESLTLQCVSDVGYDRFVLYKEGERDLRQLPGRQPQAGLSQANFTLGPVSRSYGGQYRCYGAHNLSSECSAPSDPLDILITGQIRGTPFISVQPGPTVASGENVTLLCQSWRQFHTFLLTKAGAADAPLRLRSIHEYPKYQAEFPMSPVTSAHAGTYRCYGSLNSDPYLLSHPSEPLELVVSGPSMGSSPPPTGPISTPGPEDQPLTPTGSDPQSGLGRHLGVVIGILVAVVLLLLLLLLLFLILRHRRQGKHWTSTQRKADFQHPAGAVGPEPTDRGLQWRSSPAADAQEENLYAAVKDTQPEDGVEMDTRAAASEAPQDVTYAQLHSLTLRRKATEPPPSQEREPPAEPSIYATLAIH

| Binder | IC50 [1] [µg/mL] | kon [2] [M⁻¹ s⁻¹] | IC50 [3] [µg/mL] | IL-6 secretion by LPS-stimulated M2 macrophages (MSD), fold over control [4] [fold] | Kd [5] [nM] | koff [5] [s⁻¹] | Kd [2] [nM] | koff [2] [s⁻¹] |
| --- | --- | --- | --- | --- | --- | --- | --- | --- |
| L77S2 (antibody, IgG1, V domains shown, also called Murine 77; mouse anti-human ILT4 antibody L77S2) VH: DVQLQQSGPELVKPGNSVKISCKAAGYSFTGYSVNWVKERHGKSLEWIGRINPYNGDIFNNQKFKGKATLTVDKSSSTAHMELRSLTSEDSAVYYCARGTTVGGAWFAYWGQGTLVTVSA VL: VIVLTQSPASLAVSLGQRAAISCRASESVDSYGYSFLHWYQQKPGQPPKLLIYLASNLESGIPARFSGSGSGTDFTLTINPVEADDVATYYCQQSNEDLMYTFGGGTKLEIK | 0.076 | 387000 | 0.103 | 2 | ≤ 0.111 | ≤ 4.27e-05 |  |  |
| L180S4 (antibody, IgG1, V domains shown, also called Murine 180; mouse anti-human ILT4 antibody L180S4) VH: EVHLQQSGPELVKPGASVKISCKASGYSFIGYFMNWMKQSHGKSLEWIGRINPYNGDIFYNQKFKGKATLTVDKSSTTAHMDLLSLTSEDFAVYYCARGITVAAGSFDVWGTGTTVTVSS VL: DIVLTQSPASLAVSLGQRATISCRASESVDNYGNTFMHWYQQKPGQPPKLLIYRASNLESGIPARFSGSGSKTDFTLTINPVEADDVATYYCQQSSDHPLTFGAGTKLELS | 0.064 | 431000 | 0.095 | 2 | ≤ 0.099 | ≤ 4.27e-05 |  |  |
| Chimeric 45 (antibody, V domains shown, Chimeric form of L45S4, captured on anti-human Fc) VH: EVQLQQSGPELVKPGASVKISCKASGYTFTDYYMNWVKQSHGKSLEWIGDINPNNGGTSYNQKFKGKATLTVDKSSSTAYMELRSLTSEDSAVYYCARGGAELTGTYWYFDVWGTGTTVTVSS VL: DIQMTQSPASLSISVGETVTITCRASENIYSNLAWYQQKQGKSPQVLVYGATNLADGVPSRFSGSGSGTQYSLKIKSLQSEDFGSYYCQHFWDSPFTFGSGTKLEIK |  | 489000 |  |  |  |  | 0.223 | 0.000109 |
| Chimeric 156 (antibody, V domains shown, Chimeric form of L156S3) VH: QVQLKQSGAELVRPGASVKLSCRASGYTFTDYYMNWVKQRPGQGLEWIARIYPGVYRTHYNEKFKDKATLTAEKSSSTAYMELSSLTSEDSAVYFCARSGYYGGTYEEDAMDYWGQGTSVTVSS VL: DIQMTQSPASLSVSVGETVTITCRASENIYSNLAWYQQKQGKSPQLLVYAATSLADGVPSRFRGSGSGTQYSLKISSLQSEDFGNYYCQNFWDTPYTFGGGTKLEIK |  | 373000 |  |  | ≤ 0.114 | ≤ 4.27e-05 |  |  |
| Chimeric 77 (antibody, V domains shown, Chimeric form of L77S2) VH: DVQLQQSGPELVKPGNSVKISCKAAGYSFTGYSVNWVKERHGKSLEWIGRINPYNGDIFNNQKFKGKATLTVDKSSSTAHMELRSLTSEDSAVYYCARGTTVGGAWFAYWGQGTLVTVSA VL: VIVLTQSPASLAVSLGQRAAISCRASESVDSYGYSFLHWYQQKPGQPPKLLIYLASNLESGIPARFSGSGSGTDFTLTINPVEADDVATYYCQQSNEDLMYTFGGGTKLEIK |  | 728000 |  |  | ≤ 0.059 | ≤ 4.27e-05 |  |  |
| Chimeric 180 (antibody, V domains shown, Chimeric form of L180S4) VH: EVHLQQSGPELVKPGASVKISCKASGYSFIGYFMNWMKQSHGKSLEWIGRINPYNGDIFYNQKFKGKATLTVDKSSTTAHMDLLSLTSEDFAVYYCARGITVAAGSFDVWGTGTTVTVSS VL: DIVLTQSPASLAVSLGQRATISCRASESVDNYGNTFMHWYQQKPGQPPKLLIYRASNLESGIPARFSGSGSKTDFTLTINPVEADDVATYYCQQSSDHPLTFGAGTKLELS |  | 874000 |  |  | ≤ 0.049 | ≤ 4.27e-05 |  |  |
